Assay results as given in patent US20190315842A1 (DUKE UNIVERSITY, published 2019).
“And” between values parts separate entries of the source, which are not always exact repeats. Equal entries are not always repeated.

T1: reduced SCR19-20 (human CFH short consensus repeat domains 19 and 20, reduced) (human, UniProt P08603 1107-1231, disulfides reduced with TCEP or reducing SDS-PAGE)
T1 construct: domain: SCR19-20; Same construct as m3, reduced
T1 sequence (looked up): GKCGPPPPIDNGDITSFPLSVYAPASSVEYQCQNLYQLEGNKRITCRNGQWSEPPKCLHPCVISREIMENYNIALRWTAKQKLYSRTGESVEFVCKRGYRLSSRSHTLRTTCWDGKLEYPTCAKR

T2: sclerosis autoantigen (Scl-70) (UniProt P11387 2-765, limits assumed)
T2 sequence (looked up): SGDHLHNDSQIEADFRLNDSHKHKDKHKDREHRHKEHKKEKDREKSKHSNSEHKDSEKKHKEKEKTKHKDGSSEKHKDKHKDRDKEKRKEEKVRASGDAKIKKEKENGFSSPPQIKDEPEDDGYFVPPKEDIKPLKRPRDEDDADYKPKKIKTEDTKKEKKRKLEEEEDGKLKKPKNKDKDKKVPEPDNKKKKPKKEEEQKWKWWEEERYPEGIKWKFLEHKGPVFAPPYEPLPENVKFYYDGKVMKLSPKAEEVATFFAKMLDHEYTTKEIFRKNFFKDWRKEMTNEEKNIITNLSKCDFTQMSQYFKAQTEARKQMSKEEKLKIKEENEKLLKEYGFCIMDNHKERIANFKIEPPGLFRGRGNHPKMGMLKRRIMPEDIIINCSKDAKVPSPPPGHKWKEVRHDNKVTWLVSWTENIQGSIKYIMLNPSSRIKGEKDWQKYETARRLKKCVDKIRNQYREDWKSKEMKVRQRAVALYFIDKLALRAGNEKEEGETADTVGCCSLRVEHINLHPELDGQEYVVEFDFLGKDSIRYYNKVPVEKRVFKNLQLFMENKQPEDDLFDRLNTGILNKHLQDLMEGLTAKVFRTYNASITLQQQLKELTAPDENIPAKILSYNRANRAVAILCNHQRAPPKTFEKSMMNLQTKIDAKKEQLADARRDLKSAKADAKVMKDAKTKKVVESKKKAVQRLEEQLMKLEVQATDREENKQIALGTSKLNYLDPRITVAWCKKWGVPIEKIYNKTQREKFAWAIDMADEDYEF

T3: 15-mer peptide GPPPPIDNGDITSFP (SEQ ID NO: 114) (human)
T3 construct: Immobilized for SPR; also called parent peptide
T3 peptide: GPPPPIDNGDITSFP

T4: centromere B (CentB) (UniProt P07199 2-599)
T4 sequence (looked up): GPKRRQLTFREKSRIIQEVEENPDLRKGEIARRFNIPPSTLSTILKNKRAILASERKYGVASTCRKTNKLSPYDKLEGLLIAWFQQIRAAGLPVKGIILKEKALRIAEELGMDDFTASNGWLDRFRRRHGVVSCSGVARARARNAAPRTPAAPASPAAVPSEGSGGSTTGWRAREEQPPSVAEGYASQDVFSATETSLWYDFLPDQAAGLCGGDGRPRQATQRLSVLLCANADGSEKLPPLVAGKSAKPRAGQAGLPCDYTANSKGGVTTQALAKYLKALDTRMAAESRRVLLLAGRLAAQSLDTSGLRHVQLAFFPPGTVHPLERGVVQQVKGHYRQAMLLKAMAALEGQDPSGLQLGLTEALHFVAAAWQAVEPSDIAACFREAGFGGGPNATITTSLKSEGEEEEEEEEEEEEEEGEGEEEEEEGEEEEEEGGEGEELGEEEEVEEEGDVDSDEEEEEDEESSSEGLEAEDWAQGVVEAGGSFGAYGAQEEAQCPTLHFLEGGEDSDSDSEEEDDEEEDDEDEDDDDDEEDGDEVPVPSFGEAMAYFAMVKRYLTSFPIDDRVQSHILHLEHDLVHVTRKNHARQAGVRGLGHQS

B1: Ab7962/293i (antibody, V domains shown)
VH: LVESGGGLVQPGGSLRLSCAASGFTFSSYEMNWVRQAPGKGLEWVSYISSSGSTIYYADSVKGRFTISRDNAKNSLYLQMNSLRAEDTAVYYCARVEQLAPSPYMDVWGKGTTVTVSS
VL: MTQSLDSLTVSLGERATINCKSSQSLLYTSNNKNYLAWYQQKSGQPPKLLIYWASIRDSGVPDRFSGSGSATDFTLTINNLQAEDVAVYFCQQYYKTPLTFGGGTKVEVR
notes: Recombinant human antibody with IgG1 heavy chain backbone and kappa light chain constant (IgM in the donor B cell); they begin at LVESGGG and MTQSL; also called clone 27; pH007962/pK005996
B2: Ab7968 (antibody, IgG1, V domains shown)
VH: LVESGGGVVQPGRSLRLSCAASGFTFSRYGMHWVRQAPGKGLEWVAVMSYDGSTKYYADSVKGRFAISRDNPKNTLFLQMNSLRPDDTAVYYCAKGGAAAAVMDVWGKGTTVTVSS
VL: MTQSPDSLTVSLGERATISCKSSQRLLYSSNNKNYLAWYQQKPGQPPKLLMYWASTRESGVPDRFSGSGSGTDFSLTISSLQAEDVAVYYCQQYYNPPWTFGQGTKVEVK
notes: Recombinant human antibody with IgG1 heavy chain backbone and kappa light chain constant; they begin at LVESGGG and MTQSP; also called mAb 7968; mAb7968
B3: Ab7957/293i (antibody, IgG1, V domains shown)
VH: LVESGGGVVPPGKSLRLSCAASGFTFSLYGIHWVRQAPGKGLEWVAVISYDGNTKYYTDSVKGRFTISRDNAKNTIYLQMNSLRLDDTAVYYCAKGAANSATFDFWGRGTMVTVSS
VL: MTQSPDSLTLSLGERATINCRSSRTVLYRSNNKNYLAWYQHKPGQPPKLLMSWASTRETGVPDRFSGSGSGTHFTLTITSLQPEDVAVYYCQQYYSPPWTFGQGTKVEIR
notes: Recombinant human antibody with IgG1 heavy chain backbone and kappa light chain constant; they begin at LVESGGG and MTQSP; also called Ab7957i; mAb 7957

Key:
[1] = biological target: T5, reduced form of Complement Factor H (CFH), treated with TCEP (human, UniProt P08603 19-1231, disulfides reduced with 10 mM TCEP); assay: immunoblot, SDS-PAGE under reducing conditions, anti-human IgG-HRP, chemiluminescence; lane numbers as in Table 10
T5 construct: also called reduced CFH; reduced form of CFH

[2] = biological target: T1, reduced SCR19-20 (human CFH short …); assay: as above
[3] = biological target: T6, Complement Factor H (CFH) protein, full-length (human, UniProt P08603 19-1231); assay: immunoblot, SDS-PAGE under non-reducing conditions, anti-human IgG-HRP, chemiluminescence; lane numbers as in Table 10
T6 construct: also called full-length CFH; native CFH

ribonucleoprotein (RNP) = assay: AtheNA Multi-Lyte ANA, Ab at 25 ug/ml
Procedure: (§1) All 7 mAbs were tested against the AtheNA Multi-Lyte panel of autoantigens. The AtheNA Multi-Lyte ANA test for a panel of nuclear antigens: systemic lupus erythematosus autoantigens SSA and SSB, sphingomyelin (Sm), ribonucleoprotein (RNP), sclerosis autoantigen (Scl-70), histidine-tRNA ligase (Jo-1), double-stranded DNA (dsDNA), centromere B (CentB), and histones. 4e10 (Anti HIV, NIH AIDS Reagent Program) and SYNAGIS® (anti-RSV monoclonal antibody palivizumab; “Synagis”) were used a controls.

[4] = biological target: T2, sclerosis autoantigen (Scl-70); assay: AtheNA Multi-Lyte ANA, Ab at 25 ug/ml
Procedure: as §1

[5] = biological target: T3, 15-mer peptide GPPPPIDNGDITSFP (SEQ ID …); assay: SPR (BIAcore), mAb at 25, 50 or 100 nM over immobilized 15-mer peptide
centromere B (CentB) = biological target: T4, centromere B (CentB); assay: AtheNA Multi-Lyte ANA, Ab at 25 ug/ml
Procedure: as §1

[6] = biological target: T5, reduced form of Complement Factor H …; assay: immunoblot, SDS-PAGE under reducing conditions, antibody at 0.5 µg/ml, anti-human IgG-HRP, chemiluminescence; lane numbers as in Table 10
[7] = biological target: T6, Complement Factor H (CFH) protein, …; assay: immunoblot, SDS-PAGE under non-reducing conditions, antibody at 0.5 µg/ml, anti-human IgG-HRP, chemiluminescence; lane numbers as in Table 10

Row | Binder | binding result [1] | binding result [2] | binding result [3] | AtheNA signal (ribonucleoprotein (RNP)) | AtheNA signal [4] | Kd [5] | koff [5] [s⁻¹] | kon [5] [M⁻¹ s⁻¹] | AtheNA signal (centromere B (CentB)) | binding result [6] | binding result [7]
1 | B1 | no binding (tested: 0.5 µg/ml) | no binding (tested: 0.5 µg/ml) | no binding (tested: 0.5 µg/ml) | – | – | – | – | – | – | – | –
2 | B2 | – | – | – | 8 | 3 | ~2.5 pM and 2.46 pM | 5.56e-07 | 226000 | – | – | –
3 | B3 | – | – | – | 4 | 2 | – | – | – | 2 | binds | binds
